Assays:
His80 = His80 (UniProt position 80, NVSGAHLNPAF); experiment: kinetics (stopped-flow fluorescence transport assay in intact yeast cells); conditions: 23 °C; not stated (50 mM K-citrate buffer); 50 mM K-citrate with 1.4 M sorbitol; osmotic shock with 2.1 M glycerol in 50 mM K-citrate; Channel in the yeast plasma membrane, glycerol gradient applied; pH-gated closed (high pH) to open (low pH) transition
[1] = molecular target: the molecule itself; experiment: crystal structure; hanging-drop vapor diffusion at 18 °C, 100 mM MES-NaOH pH 6.0, 19 % PEG 2k MME, 5 % glycerol; entire tetramer in the asymmetric unit; 2.3 Å

Molecule	pKa (His80)	stoichiometry N [1]
Aquaporin-10 (hAQP10), full length (Homo sapiens)	5.92 ± 0.20	
Aquaporin-10 crystallisation construct (hAQP10cryst) (Homo sapiens; del1-10;del278-301)	6.00 ± 0.13	
human aquaporin 10, crystallized variant hAQP10_(cryst) (domain or fragment, UniProt Q96PS8 11-277, looked up, human aquaglyceroporin AQP10, truncated in the termini (Δ1–10, Δ278–301): the first 10 and the last 24 amino acids removed; codon-optimized cDNA; His8 stretch fused directly to the C-terminus with no protease site; also called human AQP10; source: S. cerevisiae PAP1500, purified (IMAC, SEC); not shown: His8, C-terminal, kept) MGHLRIRSLLARQCLAEFLGVFVLMLLTQGAVAQAVTSGETKGNFFTMFLAGSLAVTIAIYVGGNVSGAHLNPAFSLAMCIVGRLPWVKLPIYILVQLLSAFCASGATYVLYHDALQNYTGGNLTVTGPKETASIFATYPAPYLSLNNGFLDQVLGTGMLIVGLLAILDRRNKGVPAGLEPVVVGMLILALGLSMGANCGIPLNPARDLGPRLFTYVAGWGPEVFSAGNGWWWVPVVAPLVGATVGTATYQLLVALHHPEGPEPAQD		4

Reference: article PMC6232157, “Human adipose glycerol flux is regulated by a pH gate in AQP10” (Nature Communications, 2018)
